Here are results for 5 substances from publication PMC4547976.

Assay [1] deals with activin A (UniProt P08476).
Assay [2] has as its target T1, myostatin (MSTN) (UniProt O14793).
T1 sequence: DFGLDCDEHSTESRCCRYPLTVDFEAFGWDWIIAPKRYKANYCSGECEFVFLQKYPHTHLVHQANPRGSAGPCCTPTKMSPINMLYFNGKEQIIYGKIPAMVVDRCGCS

Assay [3] addresses T2, GDF11 (UniProt O95390).
T2 sequence: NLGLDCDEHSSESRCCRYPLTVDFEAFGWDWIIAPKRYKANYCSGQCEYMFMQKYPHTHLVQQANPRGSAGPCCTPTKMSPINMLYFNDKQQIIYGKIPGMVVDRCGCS

Sequence of UniProt P08476 (P08476 311-426): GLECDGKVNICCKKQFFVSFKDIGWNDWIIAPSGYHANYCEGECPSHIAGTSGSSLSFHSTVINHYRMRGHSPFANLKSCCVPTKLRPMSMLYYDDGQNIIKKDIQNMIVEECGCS

In assay [1], “MBP-FST288 (chicken follistatin FST288 fused to maltose-binding protein) (natural protein)” returned an IC50 of suppression of 1 nM activin A activity, pGL3-(CAGA)12 luciferase reporter in HEK293 cells (180-0 nM FST-type protein) of 0.00396 µM. The substance further yielded an IC50 of suppression of 1 nM MSTN activity, pGL3-(CAGA)12 luciferase reporter in HEK293 cells (180-0 nM FST-type protein) in assay [2] of 0.00201 µM. In addition, the IC50 of suppression of 1 nM GDF11 activity, pGL3-(CAGA)12 luciferase reporter in HEK293 cells (180-0 nM FST-type protein) in assay [3] was determined as 0.00164 µM.
“MBP-FST315 (MBP-fused chicken follistatin FST315) (from UniProt Q90844 29-343) (natural protein)” came in with an IC50 of suppression of 1 nM MSTN activity, pGL3-(CAGA)12 luciferase reporter in HEK293 cells in assay [2] of 0.00481 µM. Moreover, the IC50 of suppression of 1 nM GDF11 activity, pGL3-(CAGA)12 luciferase reporter in HEK293 cells in assay [3] is 0.00635 µM.
In assay [1], “MBP-NDFSD1 (chicken follistatin N-terminal domain and FSD1 fused to maltose-binding protein) (domain or fragment)” registered an IC50 of suppression of 1 nM activin A activity, pGL3-(CAGA)12 luciferase reporter in HEK293 cells (180-0 nM FST-type protein) of 0.0153 µM. In assay [2], this substance showed an IC50 of suppression of 1 nM MSTN activity, pGL3-(CAGA)12 luciferase reporter in HEK293 cells (180-0 nM FST-type protein) of 0.0689 µM. The substance further had an IC50 of suppression of 1 nM GDF11 activity, pGL3-(CAGA)12 luciferase reporter in HEK293 cells (180-0 nM FST-type protein) in assay [3] of 0.0579 µM.
The substance “MBP-NDFSD1/1 (chicken follistatin N-terminal domain, FSD1 and a second FSD1 fused to maltose-binding protein) (domain or fragment)” yielded an IC50 of suppression of 1 nM MSTN activity, pGL3-(CAGA)12 luciferase reporter in HEK293 cells (180-0 nM FST-type protein) in assay [2] of 0.064 µM. This substance registered an IC50 of suppression of 1 nM GDF11 activity, pGL3-(CAGA)12 luciferase reporter in HEK293 cells (180-0 nM FST-type protein) in assay [3] of 0.0262 µM.
As to “MBP-NDFSD1/2 (chicken follistatin N-terminal domain, FSD1 and FSD2 fused to maltose-binding protein) (domain or fragment)”, the IC50 of suppression of 1 nM activin A activity, pGL3-(CAGA)12 luciferase reporter in HEK293 cells (180-0 nM FST-type protein) in assay [1] stood at 0.00859 µM. Also, the IC50 of suppression of 1 nM MSTN activity, pGL3-(CAGA)12 luciferase reporter in HEK293 cells (180-0 nM FST-type protein) in assay [2] was 0.0105 µM. Besides, the IC50 of suppression of 1 nM GDF11 activity, pGL3-(CAGA)12 luciferase reporter in HEK293 cells (180-0 nM FST-type protein) in assay [3] was 0.00356 µM.
